# B1: reverse caspase-3 (protein)
# chain: MIETDSGVDDDMACHKIPVEADFLYAYSTAPGYYSWRNSKDGSWFIQSLCAMLKQYADKLEFMHILTRVNRKVATEFESFSFDATFHAKKQIPCIVSMLTKELYFYHDEVDGENTENSVDSKSIKNLEPKIIHGSESMDSGISLDNSYKMDYPEMGLCIIINNKNFHKSTGMTSRSGTDVDAANLRETFRNLKYEVRNKNDLTREEIVELMRDVSKEDHSKRSSFVCVLLSHGEEGIIFGTNGPVDLKKITNFFRGDRCRSLTGKPKLFIIQACRGTELDCGIETD
# Experiments:
# [1] = molecular target: KH6-DEVD-hGH expressed from pAPT-Y-KH6-DEVD-hGH-Lacuv5-rev-CASP3
# [2] = molecular target: AH6-DEVD-hGH expressed from pAPT-Y-AH6-DEVD-hGH-Lacuv5-rev-CASP3
# [3] = molecular target: DH6-DEVD-hGH expressed from pAPT-Y-DH6-DEVD-hGH-Lacuv5-rev-CASP3
# [4] = molecular target: H6-DEVD-hGH expressed from pAPT-Y-H6-DEVD-hGH-Lacuv5-rev-CASP3
# [5] = molecular target: HAK-DEVD-hGH expressed from pAPT-Y-HAK-DEVD-hGH-Lacuv5-rev-CASP3
# [6] = molecular target: NH6-DEVD-hGH expressed from pAPT-Y-NH6-DEVD-hGH-Lacuv5-rev-CASP3
# [7] = molecular target: H6-DEVD-hGH expressed from pETDuet-H6-DEVD-hGH-T7-rev-CASP3
# H6-DEVD-hGH expressed from pETDuet-H6-DEVD-hGH-T7-rev-CASP3, sequence (chain, as listed by the source): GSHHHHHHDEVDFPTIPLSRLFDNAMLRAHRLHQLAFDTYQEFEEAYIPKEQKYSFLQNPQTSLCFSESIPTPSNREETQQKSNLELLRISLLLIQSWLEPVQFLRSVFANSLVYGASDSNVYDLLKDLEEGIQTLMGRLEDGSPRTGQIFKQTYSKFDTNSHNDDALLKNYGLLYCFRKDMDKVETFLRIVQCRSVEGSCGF
# NH6-DEVD-hGH expressed from pAPT-Y-NH6-DEVD-hGH-Lacuv5-rev-CASP3, sequence (chain, as listed by the source): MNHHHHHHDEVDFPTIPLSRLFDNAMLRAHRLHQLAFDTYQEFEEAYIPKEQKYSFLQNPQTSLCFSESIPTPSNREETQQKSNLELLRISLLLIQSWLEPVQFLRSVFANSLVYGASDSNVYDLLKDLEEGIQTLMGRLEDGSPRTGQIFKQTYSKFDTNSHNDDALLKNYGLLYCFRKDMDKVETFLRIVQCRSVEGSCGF
# DH6-DEVD-hGH expressed from pAPT-Y-DH6-DEVD-hGH-Lacuv5-rev-CASP3, sequence (chain, as listed by the source): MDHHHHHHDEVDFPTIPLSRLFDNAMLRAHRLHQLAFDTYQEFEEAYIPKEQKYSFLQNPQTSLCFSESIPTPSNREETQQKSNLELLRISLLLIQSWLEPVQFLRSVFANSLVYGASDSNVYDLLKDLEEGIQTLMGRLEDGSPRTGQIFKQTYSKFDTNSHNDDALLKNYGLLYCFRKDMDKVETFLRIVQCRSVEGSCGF
# KH6-DEVD-hGH expressed from pAPT-Y-KH6-DEVD-hGH-Lacuv5-rev-CASP3, sequence (chain, as listed by the source): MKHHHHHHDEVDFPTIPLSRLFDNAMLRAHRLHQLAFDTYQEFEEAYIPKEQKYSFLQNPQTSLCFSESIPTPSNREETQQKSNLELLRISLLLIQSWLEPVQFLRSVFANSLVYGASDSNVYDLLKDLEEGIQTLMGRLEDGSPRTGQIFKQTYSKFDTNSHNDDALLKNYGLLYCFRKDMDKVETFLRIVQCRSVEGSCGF
# AH6-DEVD-hGH expressed from pAPT-Y-AH6-DEVD-hGH-Lacuv5-rev-CASP3, sequence (chain, as listed by the source): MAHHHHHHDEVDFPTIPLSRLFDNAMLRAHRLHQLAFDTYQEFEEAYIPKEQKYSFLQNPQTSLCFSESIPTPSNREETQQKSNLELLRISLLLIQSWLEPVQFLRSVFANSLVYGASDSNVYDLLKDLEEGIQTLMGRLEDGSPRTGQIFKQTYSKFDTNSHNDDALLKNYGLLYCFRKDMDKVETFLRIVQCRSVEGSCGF
# H6-DEVD-hGH expressed from pAPT-Y-H6-DEVD-hGH-Lacuv5-rev-CASP3, sequence (chain, as listed by the source): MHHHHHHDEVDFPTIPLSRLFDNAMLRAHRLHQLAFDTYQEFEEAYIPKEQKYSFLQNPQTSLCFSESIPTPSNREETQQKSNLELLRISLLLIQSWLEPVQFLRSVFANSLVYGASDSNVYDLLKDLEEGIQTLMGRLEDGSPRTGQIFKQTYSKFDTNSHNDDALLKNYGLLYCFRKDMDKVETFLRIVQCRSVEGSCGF
# HAK-DEVD-hGH expressed from pAPT-Y-HAK-DEVD-hGH-Lacuv5-rev-CASP3, sequence (chain, as listed by the source): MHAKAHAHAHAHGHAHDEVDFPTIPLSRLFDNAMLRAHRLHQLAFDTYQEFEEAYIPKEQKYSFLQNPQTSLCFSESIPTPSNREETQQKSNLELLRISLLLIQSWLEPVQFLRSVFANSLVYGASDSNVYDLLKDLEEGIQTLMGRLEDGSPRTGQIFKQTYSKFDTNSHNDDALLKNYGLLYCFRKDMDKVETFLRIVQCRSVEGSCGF
protein,measurement,setting,value
B1,"cleavage of synthetic tag (Western blot, co-expression in E. coli)",[1],99.30% or more of the synthetic tag was cleaved
same,"cleavage of synthetic tag (Western blot, co-expression in E. coli)",[2],99.30% or more of the synthetic tag was cleaved
same,"cleavage of synthetic tag (Western blot, co-expression in E. coli)",[3],99.30% or more of the synthetic tag was cleaved
same,"cleavage of synthetic tag (Western blot, co-expression in E. coli)",[4],99.30% or more of the synthetic tag was cleaved
same,"cleavage of synthetic tag (Western blot, co-expression in E. coli)",[5],99.30% or more of the synthetic tag was cleaved
same,"cleavage of synthetic tag (Western blot, co-expression in E. coli)",[6],99.30% or more of the synthetic tag was cleaved
same,"cleavage of N-terminal methionine and synthetic tag (Western blot, co-expression in E. coli)",[7],96.12% of the N-terminal methionine of the growth hormone protein and the synthetic tag was cleaved
